Sequences and labels used below:
B1: Transcription intermediary factor 1-beta, residues 620 to 671; numbered along this chain, Q13263 (parent)
chain: TLDDSATICRVCQKPGDLVMCNQCEFCFHLDCHLPALQDVPGEEWSCSLCHV

± gives the uncertainty stated by the source.

The variants in this data set derive from B1. The experiment in a line: abundance fitness (aPCA) (normalised: wild type 0, dead -1); higher = more abundant; growth selection in yeast, the domain comes from the species named. Conditions: Homo sapiens.
In the case of P41M, the abundance fitness is -0.303 ± 0.16.
Turning to P41H, the abundance fitness is -0.513 ± 0.18.
Regarding E43Y, the abundance fitness is -0.486 ± 0.22.
As to E43N, the abundance fitness was -0.089 ± 0.37.
On to E43C, for which the abundance fitness is -0.129 ± 0.12.
With E43A, the abundance fitness came to 0.035 ± 0.11.
E43H: the abundance fitness came to 0.062 ± 0.22.
As to E43P, the abundance fitness is -0.032 ± 0.14.
In the case of E43S, the abundance fitness is -0.007 ± 0.095.
E43I: the abundance fitness was -0.092 ± 0.14.
In the case of E43V it was -0.165 ± 0.086.
As to E43Q, the abundance fitness is -0.298 ± 0.19.
For the variant E43D, the abundance fitness came out at 0.088 ± 0.17.
Take E43W: the abundance fitness is -0.2 ± 0.1.
E43L: the abundance fitness is -0.085 ± 0.086.
For the variant F28D, the abundance fitness is -0.554 ± 0.34.
For F28R the value was -0.284 ± 0.093; for F28Q, -0.549 ± 0.31; for F28N, -0.724 ± 0.28.
For the variant F28C, the abundance fitness is -0.211 ± 0.15.
Regarding F28T, the abundance fitness was -0.278 ± 0.12.
As to F28H, the abundance fitness is -0.346 ± 0.35.
Turning to F28S, the abundance fitness was -0.424 ± 0.12.
In the case of F28A it was -0.098 ± 0.13; in that of F28E, -0.321 ± 0.14.
In the case of F28W it was 0.093 ± 0.11.
For F28G, the abundance fitness is -0.593 ± 0.12.
For F28L the value was -0.393 ± 0.11.
For F28M the value was -0.318 ± 0.14; for F28V, -0.227 ± 0.092.
As to F28Y, the abundance fitness was -0.09 ± 0.17.
For F28K the value was -0.427 ± 0.23; for F28I, -0.016 ± 0.16; for D39Q, -0.184 ± 0.17.
For D39T, the abundance fitness is -0.089 ± 0.19.
As to D39S, the abundance fitness was -0.227 ± 0.12.
As for D39I, the abundance fitness is -0.121 ± 0.16.
As to D39C, the abundance fitness is -0.212 ± 0.15.
D39A: the abundance fitness is -0.175 ± 0.16.
Turning to D39Y, the abundance fitness is -0.206 ± 0.17.
For D39K the value was -0.272 ± 0.21; for D39G, -0.235 ± 0.098; for D39E, 0.287 ± 0.16.
In the case of D39W, the abundance fitness was -0.545 ± 0.14.
For D39R, the abundance fitness was -0.222 ± 0.1.
For the variant D39H, the abundance fitness was -0.268 ± 0.21.
D39N: the abundance fitness is -0.551 ± 0.27.
For D39V the value was 0.026 ± 0.099; for D39M, -0.24 ± 0.14; for D39F, -0.214 ± 0.17.
For the variant L37H, the abundance fitness is -0.215 ± 0.24.
L37N: the abundance fitness was -0.334 ± 0.35.
On to L37F, for which the abundance fitness was -0.344 ± 0.2.
Turning to L37P, the abundance fitness was -0.138 ± 0.14.
Consider L37Q, for which the abundance fitness was -0.108 ± 0.17.
As to L37W, the abundance fitness was determined as 0.118 ± 0.13.
In the case of L37M, the abundance fitness was -0.083 ± 0.14.
In the case of L37T it was 0.035 ± 0.14; in that of L37K, -0.421 ± 0.2; in that of L37Y, -0.27 ± 0.18.
In the case of L37C, the abundance fitness is -0.021 ± 0.12.
For L37R the value was -0.106 ± 0.096.
As to L37D, the abundance fitness is -0.278 ± 0.21.
In the case of L37E, the abundance fitness is -0.499 ± 0.17.
As for L37V, the abundance fitness was -0.094 ± 0.096.
For L37S the value was -0.071 ± 0.11; for E44N, -0.16 ± 0.2.
On to E44V, for which the abundance fitness is -0.217 ± 0.085.
Turning to E44I, the abundance fitness is -0.35 ± 0.18.
Regarding E44A, the abundance fitness is -0.226 ± 0.11.
In the case of E44Q, the abundance fitness was -0.057 ± 0.13.
In the case of E44Y it was -0.143 ± 0.23.
In the case of E44T it was -0.164 ± 0.14; in that of E44R, -0.08 ± 0.095.
As for E44G, the abundance fitness was -0.042 ± 0.11.
For E44C the value was 0.058 ± 0.15; for E44L, -0.253 ± 0.087; for E44M, -0.058 ± 0.12.
For the variant E44S, the abundance fitness is -0.07 ± 0.11.
As for E44P, the abundance fitness was -0.369 ± 0.13.
For E44K the value was -0.172 ± 0.13.
As to E44F, the abundance fitness was -0.412 ± 0.2.
For the variant C27Y, the abundance fitness amounted to 0.002 ± 0.16.
Take P35D: the abundance fitness is -0.447 ± 0.14.
Consider P35M, for which the abundance fitness was -0.291 ± 0.15.
On to P35K, for which the abundance fitness was -0.18 ± 0.16.
As for P35E, the abundance fitness is -0.447 ± 0.12.
On to P35F, for which the abundance fitness was -0.637 ± 0.17.
For the variant P35S, the abundance fitness was -0.128 ± 0.1.
As to P35W, the abundance fitness is -0.799 ± 0.14.
For the variant P35Q, the abundance fitness is -0.698 ± 0.2.
Turning to P35G, the abundance fitness is -0.244 ± 0.096.
Consider P35N, for which the abundance fitness was -0.222 ± 0.17.
Take P35T: the abundance fitness is -0.552 ± 0.16.
On to P35A, for which the abundance fitness is -0.553 ± 0.12.
For the variant P35H, the abundance fitness was -0.431 ± 0.23.
Take P35R: the abundance fitness is -0.488 ± 0.11.
As for P35L, the abundance fitness is -0.508 ± 0.12.
P35V: the abundance fitness is -0.458 ± 0.088.
F26K: the abundance fitness is 0.155 ± 0.13.
In the case of F26G, the abundance fitness was found to be 0.121 ± 0.1.
In the case of F26W, the abundance fitness was -0.399 ± 0.13.
In the case of F26L it was -0.328 ± 0.12.
For F26R the value was -0.045 ± 0.097; for F26D, -0.034 ± 0.22; for F26E, 0.04 ± 0.15.
For F26A the value was -0.063 ± 0.11; for F26I, -0.812 ± 0.34; for F26H, -0.374 ± 0.21.
As for F26S, the abundance fitness was -0.192 ± 0.1.
In the case of F26P it was -0.993 ± 0.24; in that of F26Q, 0.082 ± 0.16; in that of F26M, -0.108 ± 0.2.
For the variant F26T, the abundance fitness was -0.563 ± 0.17.
Turning to F26V, the abundance fitness is -0.33 ± 0.11.
On to F26C, for which the abundance fitness was -0.029 ± 0.24.
Take F26N: the abundance fitness was -0.122 ± 0.21.
For G42K the value was 0.095 ± 0.16.
As for G42S, the abundance fitness is -0.265 ± 0.13.
For G42L, the abundance fitness is -0.086 ± 0.092.
As for G42H, the abundance fitness came out at 0.083 ± 0.24.
As to G42T, the abundance fitness was determined as 0.174 ± 0.12.
For the variant G42E, the abundance fitness was -0.139 ± 0.15.
G42F: the abundance fitness is -0.161 ± 0.22.
In the case of G42Q, the abundance fitness is -0.028 ± 0.22.
For the variant G42C, the abundance fitness was -0.222 ± 0.16.
Turning to G42Y, the abundance fitness is -0.421 ± 0.21.
For G42R the value was -0.074 ± 0.099.
With G42W, the abundance fitness was -0.302 ± 0.14.
On to G42V, for which the abundance fitness was -0.107 ± 0.099.
In the case of G42M, the abundance fitness is -0.091 ± 0.14.
Turning to G42P, the abundance fitness was -0.085 ± 0.13.
Consider G42A, for which the abundance fitness was determined as 0.014 ± 0.085.
Consider W45V, for which the abundance fitness was -0.236 ± 0.099.
With W45Q, the abundance fitness is -0.085 ± 0.22.
With W45E, the abundance fitness is -0.158 ± 0.14.
For W45F, the abundance fitness is -0.342 ± 0.16.
W45Y: the abundance fitness is -0.202 ± 0.19.
Regarding W45N, the abundance fitness is -0.377 ± 0.3.
For W45H, the abundance fitness is -0.103 ± 0.2.
In the case of W45R it was -0.131 ± 0.089; in that of W45G, -0.137 ± 0.086.
For W45I, the abundance fitness is -0.254 ± 0.16.
For W45A the value was 0.051 ± 0.13; for W45M, -0.296 ± 0.2; for W45C, -0.283 ± 0.11.
Regarding W45D, the abundance fitness is -0.506 ± 0.14.
For W45L the value was -0.195 ± 0.091.
In the case of W45T it was -0.54 ± 0.16; in that of H29Q, -0.957 ± 0.25; in that of H29L, -1.01 ± 0.15.
For H29E the value was -0.919 ± 0.23; for H29P, -1.34 ± 0.34; for H29W, -0.908 ± 0.28.
In the case of H29N, the abundance fitness was -0.504 ± 0.19.
With H29Y, the abundance fitness is -0.921 ± 0.26.
On to H29K, for which the abundance fitness is -0.807 ± 0.28.
Take H29R: the abundance fitness was -0.749 ± 0.13.
Consider H29I, for which the abundance fitness is -1.12 ± 0.27.
Consider H29V, for which the abundance fitness was -0.952 ± 0.15.
For H29T the value was -0.637 ± 0.17.
Consider H29D, for which the abundance fitness was -0.883 ± 0.29.
On to H29C, for which the abundance fitness was -0.67 ± 0.2.
As for H29F, the abundance fitness is -0.864 ± 0.27.
H29G: the abundance fitness was -0.899 ± 0.18.
For H29M the value was -0.967 ± 0.19; for H29A, -1.01 ± 0.21.

Source of the values: the Human Domainome abundance scans (Beltran et al. 2025).
